Experiment [1] has as its target T1, CD91, cell-surface receptor of eHSP90α, on PANC-1 cells (UniProt Q07954 20-4544, limits assumed).
T1 construct: whole, on cells; Endogenous receptor on human PANC-1 cells, detected by proximity ligation assay; also called CD91/LRP-1
The experiment in a line: proximity ligation assay (PLA) in PANC-1 cells, 15 µg/ml rHSP90α, with or without 10 µg/ml control IgG, Clone-2 or Clone-6 [d]. The protocol: PANC-1 cells seeded onto glass coverslips at a density of 2×10⁵ cells per 22×22-mm coverslip were incubated 16 h with 0.5% serum-containing medium at 37° C. plus a 5% CO₂ humidified atmosphere. The cells were then added with PBS or 15 μg/ml of rHSP90α in the absence or presence of 10 μg/ml of control IgG or the tested anti-HSP90α antibody for another 24-h incubation. The treated cells were then fixed with 3% paraformaldehyde and blocked with the blocking solution provided in the Duolink in situ PLA kit (Olink Bioscience, Uppsala, Sweden). Furthermore, the cell samples were incubated overnight at 4° C. with anti-CD91 antibody (1:80, cat. #550495, BD Biosciences, San Jose, CA, USA) mixed with anti-HSP90α antibody (1:80, cat. #AHP-1339, AbD Serotec, Raleigh, NC, USA) or anti-IKKα antibody (1:80, cat. #3285, Epitomics Co., Burlingame, CA, USA). After washed trice with Tris-buffered saline plus 0.05% Tween 20, the cell samples were incubated with PLA probes for the subsequent ligation and amplification procedure according to the manufacturer's instructions for the Duolink in situ PLA kit. Finally, nuclei were counterstained with 4′,6′-diamidino-2-phenylindole (DAPI; Sigma-Aldrich). Images were photographed and analyzed using Leica TCS SP5 II confocal microscope and LAS AF Lite 4.0 software (Leica, Wetzlar, Germany).

In another experiment the target is T2, KPEIEDVGSD
T2 construct: HSP90α a.a
T2 peptide: KPEIEDVGSD
Briefly: peptide-scanning ELISA on plates coated with 10-a.a. peptides [b]. An excerpt: (§1) At first, the domain scanning strategy was used to roughly delineate the HSP90α region responsible for the binding with our prepared antibodies. The above-mentioned full-length HSP90α and its 3 truncated fragments were employed to coat 96-well ELISA plates for assaying the binding activities of the tested mouse monoclonal antibodies. […] Therefore, in peptide scanning strategy, a 132 peptide library was synthesized by Mimotopes Pty. Ltd. (Melbourne, Victoria, Australia), consisting of a series of 10-a.a. peptides offset by 2 a.a. to span the sequence of the a.a. […] This series of peptides were used to coat 96-well ELISA plates for assaying the binding activities of the tested antibodies. […] These peptides were subjected to ELISA as described above.

Another experiment has as its target T3, DKEVSDDEAE
T3 construct: HSP90α a.a
T3 peptide: DKEVSDDEAE
Described as above.
Text: as §1

The target of the next experiment is T4, VGSDEEEEKK
T4 construct: HSP90α a.a
T4 peptide: VGSDEEEEKK
Described as above.
Text: as §1

The target in the next experiment is T5, EDVGSDEEEE
T5 construct: HSP90α a.a
T5 peptide: EDVGSDEEEE
Described as above.
Text: as §1

For a further experiment, the target named is T6, EDKEEEKEKE
T6 construct: HSP90α a.a
T6 peptide: EDKEEEKEKE
The experiment is described as above.
Text: as §1

Another experiment deals with T7, EIEDVGSDEE
T7 construct: HSP90α a.a
T7 peptide: EIEDVGSDEE
The description is as above.
Text: as §1

Experiment [2] deals with T8, recombinant 732-amino acid full-length human HSP90α (rHSP90α; PeproTech) (human, UniProt P07900 1-732, limits assumed).
T8 construct: Bought protein used as immunogen, ELISA coat (12.5 ng/ml), Biacore analyte and cell stimulus; also called recombinant human HSP90α; eHSP90α
Briefly: SPR, Biacore T200; antibody captured on Protein A chip, rHSP90α 1.5625-100 nM as analyte; 1:1 model. As to the method: (§2) To measure the HSP90α-binding characteristics of anti-HSP90α antibodies, binding kinetic assays were performed using Biacore T200 (Cytiva Co., Marlborough, MA, USA). The interested anti-HSP90α antibodies were applied onto Protein A Series S sensor chips as ligands to achieve approximately 3000˜5000 response units. A series of concentrations of rHSP90α (1.5625-100 nM) in HBS-EP+ buffer were injected over the chip surface. The association was monitored for 60 sec, and the final dissociation time was 1500 sec.
(Surface plasmon resonance follows binding to a sensor surface in real time, without labels.)

In experiment [3] the target is T8, recombinant 732-amino acid full-length …. Briefly: SPR, Biacore T200, fitted to a 1:1 interaction model [b]. As to the method:
as §2

In another experiment the target is T9, EVSDDEAEEK
T9 construct: HSP90α a.a
T9 peptide: EVSDDEAEEK
Briefly: peptide-scanning ELISA on plates coated with 10-a.a. peptides [c].
Text: as §1
In general terms: In an ELISA, binding on a coated surface is turned into a signal by an enzyme label.

Another experiment concerns the target T10, KEKEEKESED
T10 construct: HSP90α a.a
T10 peptide: KEKEEKESED
Described as above.
Text: as §1

The target in the next experiment is T11, SDEEEEKKDG
T11 construct: HSP90α a.a
T11 peptide: SDEEEEKKDG
The experiment is described as above.
Text: as §1

The next experiment addresses T12, a.a. 630~732.
T12 construct: not shown: left out of the chain
Briefly: domain-scanning ELISA on plates coated with full-length or truncated His-tagged HSP90α [a].
Text: as §1
As listed in the above Table 3, HH01 antibody is capable of binding specifically to the human HSP90α with novel amino acid (a.a.) sequences in the complementarity determining regions (CDRs), and therefore we intended to identify which region of HSP90α was bound by HH01 antibody. In a preliminary study, we employed the strategy of HSP90α domain scanning to delineate the HSP90α region responsible for the binding with Clone-2 antibody. […] Subsequently, the binding activities of Clone-2 antibody to the full-length and truncated HSP90α were assayed by a conventional ELISA method.

For orientation: Kd means a measure of binding affinity in units of concentration. For orientation: koff means the rate constant with which the complex falls apart. What is called kon is the second-order rate constant of association.

T12 sequence (chain, as listed by the source limits assumed): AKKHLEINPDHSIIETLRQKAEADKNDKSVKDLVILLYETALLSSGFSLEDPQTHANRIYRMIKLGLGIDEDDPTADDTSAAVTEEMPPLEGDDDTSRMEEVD
T1 sequence (Q07954 20-4544 limits assumed): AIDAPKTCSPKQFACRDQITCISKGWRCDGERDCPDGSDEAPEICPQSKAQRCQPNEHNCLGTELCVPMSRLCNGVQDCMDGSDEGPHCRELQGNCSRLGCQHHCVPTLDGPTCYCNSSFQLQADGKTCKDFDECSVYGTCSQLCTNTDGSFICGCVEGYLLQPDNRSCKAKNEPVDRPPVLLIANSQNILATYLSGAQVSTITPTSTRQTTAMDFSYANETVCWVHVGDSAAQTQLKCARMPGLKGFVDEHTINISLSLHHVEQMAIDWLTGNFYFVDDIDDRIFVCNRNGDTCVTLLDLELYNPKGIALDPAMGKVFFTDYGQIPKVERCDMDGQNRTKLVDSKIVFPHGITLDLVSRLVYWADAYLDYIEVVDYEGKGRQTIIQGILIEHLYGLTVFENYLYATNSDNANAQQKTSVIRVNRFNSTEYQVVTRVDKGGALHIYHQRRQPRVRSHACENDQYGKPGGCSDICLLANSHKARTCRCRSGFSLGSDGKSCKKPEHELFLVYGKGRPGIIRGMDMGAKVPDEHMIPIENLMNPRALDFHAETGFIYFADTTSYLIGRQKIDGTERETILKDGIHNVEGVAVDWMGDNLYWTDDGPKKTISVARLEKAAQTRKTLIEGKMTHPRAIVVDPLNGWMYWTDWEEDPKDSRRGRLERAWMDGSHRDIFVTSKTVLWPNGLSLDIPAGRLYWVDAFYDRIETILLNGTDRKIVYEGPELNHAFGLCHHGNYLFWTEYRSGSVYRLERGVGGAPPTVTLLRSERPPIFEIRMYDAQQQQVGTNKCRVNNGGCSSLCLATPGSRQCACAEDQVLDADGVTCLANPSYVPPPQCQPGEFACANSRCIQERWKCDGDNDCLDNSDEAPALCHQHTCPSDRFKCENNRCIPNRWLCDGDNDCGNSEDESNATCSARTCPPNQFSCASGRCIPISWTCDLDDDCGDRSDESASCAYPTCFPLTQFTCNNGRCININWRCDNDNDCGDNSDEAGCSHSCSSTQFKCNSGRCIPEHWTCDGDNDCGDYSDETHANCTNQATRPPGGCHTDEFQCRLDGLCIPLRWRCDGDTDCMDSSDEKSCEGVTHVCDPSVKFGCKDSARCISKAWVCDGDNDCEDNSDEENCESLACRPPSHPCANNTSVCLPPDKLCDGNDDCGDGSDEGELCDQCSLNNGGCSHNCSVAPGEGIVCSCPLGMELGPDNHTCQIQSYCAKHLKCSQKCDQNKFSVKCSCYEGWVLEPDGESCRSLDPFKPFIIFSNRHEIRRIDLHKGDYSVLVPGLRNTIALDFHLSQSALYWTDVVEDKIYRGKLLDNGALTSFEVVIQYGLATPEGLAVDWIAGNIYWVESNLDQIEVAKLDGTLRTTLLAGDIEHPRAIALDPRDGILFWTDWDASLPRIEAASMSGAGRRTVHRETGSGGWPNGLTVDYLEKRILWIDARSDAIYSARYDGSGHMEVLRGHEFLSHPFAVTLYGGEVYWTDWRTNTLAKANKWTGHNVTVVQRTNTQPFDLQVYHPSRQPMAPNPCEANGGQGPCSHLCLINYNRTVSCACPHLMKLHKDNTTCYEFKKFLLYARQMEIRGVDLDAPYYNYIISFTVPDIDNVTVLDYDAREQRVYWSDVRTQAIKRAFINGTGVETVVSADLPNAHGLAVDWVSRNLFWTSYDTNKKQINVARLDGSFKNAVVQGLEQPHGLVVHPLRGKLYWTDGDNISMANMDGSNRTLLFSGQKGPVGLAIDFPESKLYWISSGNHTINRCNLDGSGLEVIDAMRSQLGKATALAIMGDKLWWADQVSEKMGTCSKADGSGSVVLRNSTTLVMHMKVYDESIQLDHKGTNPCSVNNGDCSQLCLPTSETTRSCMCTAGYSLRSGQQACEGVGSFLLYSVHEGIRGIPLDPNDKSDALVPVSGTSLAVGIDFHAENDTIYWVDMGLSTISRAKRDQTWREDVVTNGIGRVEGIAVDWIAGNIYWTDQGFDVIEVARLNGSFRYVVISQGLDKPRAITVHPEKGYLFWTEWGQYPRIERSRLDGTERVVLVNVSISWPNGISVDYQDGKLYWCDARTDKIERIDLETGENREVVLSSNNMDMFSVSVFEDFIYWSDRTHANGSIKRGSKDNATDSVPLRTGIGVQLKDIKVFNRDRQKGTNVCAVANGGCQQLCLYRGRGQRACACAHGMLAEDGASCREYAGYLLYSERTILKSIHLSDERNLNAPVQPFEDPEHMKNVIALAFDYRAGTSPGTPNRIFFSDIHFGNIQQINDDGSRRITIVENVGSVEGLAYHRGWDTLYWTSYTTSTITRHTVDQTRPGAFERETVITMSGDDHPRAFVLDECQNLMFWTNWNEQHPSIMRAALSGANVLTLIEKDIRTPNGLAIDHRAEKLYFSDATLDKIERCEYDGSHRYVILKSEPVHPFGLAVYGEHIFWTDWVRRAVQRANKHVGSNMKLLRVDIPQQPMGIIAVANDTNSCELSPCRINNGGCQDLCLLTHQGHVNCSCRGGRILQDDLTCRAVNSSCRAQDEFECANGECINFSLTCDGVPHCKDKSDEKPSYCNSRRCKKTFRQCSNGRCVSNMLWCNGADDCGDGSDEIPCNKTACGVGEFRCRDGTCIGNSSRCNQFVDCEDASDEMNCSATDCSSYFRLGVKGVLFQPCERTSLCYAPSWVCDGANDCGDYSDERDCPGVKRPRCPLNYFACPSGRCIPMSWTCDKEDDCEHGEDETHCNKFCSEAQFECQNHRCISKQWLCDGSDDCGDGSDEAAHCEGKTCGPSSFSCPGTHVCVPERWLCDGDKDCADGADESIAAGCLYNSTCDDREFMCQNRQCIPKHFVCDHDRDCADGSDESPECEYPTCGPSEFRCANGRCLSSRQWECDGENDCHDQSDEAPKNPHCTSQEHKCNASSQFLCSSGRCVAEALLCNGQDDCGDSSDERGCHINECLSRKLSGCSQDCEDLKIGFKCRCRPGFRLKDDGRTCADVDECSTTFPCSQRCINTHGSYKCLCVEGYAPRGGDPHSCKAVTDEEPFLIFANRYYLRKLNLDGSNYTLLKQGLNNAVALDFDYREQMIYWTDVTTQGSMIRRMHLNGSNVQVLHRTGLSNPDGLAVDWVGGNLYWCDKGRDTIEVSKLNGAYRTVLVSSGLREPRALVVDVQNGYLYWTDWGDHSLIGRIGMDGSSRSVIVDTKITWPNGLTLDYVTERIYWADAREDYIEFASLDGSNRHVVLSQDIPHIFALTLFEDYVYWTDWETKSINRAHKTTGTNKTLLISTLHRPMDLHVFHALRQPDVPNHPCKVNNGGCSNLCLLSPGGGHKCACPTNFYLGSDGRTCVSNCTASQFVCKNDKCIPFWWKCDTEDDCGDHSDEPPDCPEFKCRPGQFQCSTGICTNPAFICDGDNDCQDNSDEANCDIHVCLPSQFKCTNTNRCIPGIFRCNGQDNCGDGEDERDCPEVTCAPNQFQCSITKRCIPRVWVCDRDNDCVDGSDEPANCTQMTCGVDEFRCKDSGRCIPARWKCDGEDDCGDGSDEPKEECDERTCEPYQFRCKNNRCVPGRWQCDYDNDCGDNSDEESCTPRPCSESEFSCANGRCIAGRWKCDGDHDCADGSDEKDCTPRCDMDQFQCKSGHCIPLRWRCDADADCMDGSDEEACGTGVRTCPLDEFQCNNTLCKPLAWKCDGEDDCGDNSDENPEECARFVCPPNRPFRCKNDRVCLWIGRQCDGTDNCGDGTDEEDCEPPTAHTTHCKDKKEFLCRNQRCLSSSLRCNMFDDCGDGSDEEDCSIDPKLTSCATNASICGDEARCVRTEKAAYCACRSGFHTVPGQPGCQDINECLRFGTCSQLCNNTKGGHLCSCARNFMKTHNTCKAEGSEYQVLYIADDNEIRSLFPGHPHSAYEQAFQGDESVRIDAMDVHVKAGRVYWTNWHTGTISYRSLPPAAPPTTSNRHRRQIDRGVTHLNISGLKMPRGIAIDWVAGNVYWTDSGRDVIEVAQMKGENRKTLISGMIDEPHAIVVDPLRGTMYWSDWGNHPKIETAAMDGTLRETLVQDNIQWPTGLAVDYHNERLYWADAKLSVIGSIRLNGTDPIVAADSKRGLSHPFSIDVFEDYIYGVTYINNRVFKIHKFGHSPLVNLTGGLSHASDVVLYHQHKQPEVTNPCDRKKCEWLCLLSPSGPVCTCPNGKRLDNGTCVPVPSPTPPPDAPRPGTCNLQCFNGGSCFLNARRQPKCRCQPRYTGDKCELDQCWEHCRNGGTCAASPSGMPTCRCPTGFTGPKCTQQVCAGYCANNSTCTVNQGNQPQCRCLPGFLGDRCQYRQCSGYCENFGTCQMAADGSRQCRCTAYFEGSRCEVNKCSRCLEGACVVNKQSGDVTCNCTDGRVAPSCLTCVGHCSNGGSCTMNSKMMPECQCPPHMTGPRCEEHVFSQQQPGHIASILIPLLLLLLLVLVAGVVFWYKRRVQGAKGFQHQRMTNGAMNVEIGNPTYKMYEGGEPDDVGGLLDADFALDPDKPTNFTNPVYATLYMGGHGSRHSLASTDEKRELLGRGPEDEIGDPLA

B1: IKKα (enzyme, human, UniProt O15111 1-745, looked up)
single chain: MERPPGLRPGAGGPWEMRERLGTGGFGNVCLYQHRELDLKIAIKSCRLELSTKNRERWCHEIQIMKKLNHANVVKACDVPEELNILIHDVPLLAMEYCSGGDLRKLLNKPENCCGLKESQILSLLSDIGSGIRYLHENKIIHRDLKPENIVLQDVGGKIIHKIIDLGYAKDVDQGSLCTSFVGTLQYLAPELFENKPYTATVDYWSFGTMVFECIAGYRPFLHHLQPFTWHEKIKKKDPKCIFACEEMSGEVRFSSHLPQPNSLCSLVVEPMENWLQLMLNWDPQQRGGPVDLTLKQPRCFVLMDHILNLKIVHILNMTSAKIISFLLPPDESLHSLQSRIERETGINTGSQELLSETGISLDPRKPASQCVLDGVRGCDSYMVYLFDKSKTVYEGPFASRSLSDCVNYIVQDSKIQLPIIQLRKVWAEAVHYVSGLKEDYSRLFQGQRAAMLSLLRYNANLTKMKNTLISASQQLKAKLEFFHKSIQLDLERYSEQMTYGISSEKMLKAWKEMEEKAIHYAEVGVIGYLEDQIMSLHAEIMELQKSPYGRRQGDLMESLEQRAIDLYKQLKHRPSDHSYSDSTEMVKIIVHTVQSQDRVLKELFGHLSKLLGCKQKIIDLLPKVEVALSNIKEADNTVMFMQGKRQKEIWHLLKIACTQSSARSLVGSSLEGAVTPQTSAWLPPTSAEHDHSLSCVVTPQDGETSAQMIEENLNCLGHLSTIIHEANEEQGNSMMNLDWSWLTE
notes: endogenous, in cells; partner of CD91 in the proximity ligation assay
On to B1, for which the binding result in experiment [1] was “binds”.

B2: Clone-2-chimera anti-HSP90α antibody (antibody, V domains shown)
VH: EVQVVESGGGLVQPKGSLKLSCAASGFTFKTYAMNWVRQAPGKGLEWVARIRSKSRNYATYYADSVKDRFTISRDDSQFMFYLQMNNLKTEDTAMYYCVVGGSGFDYWGQGTTLTVSS
VL: DVLMTQTPLSLPVSLGDQASISCRSSQSIVHSNGNTYLEWYLQKPGQSPKLLIYKVSNRFSGVPDRFSGSGSGTDFTLSISRVEAGDLGVYYCFQGSHVPWTFGGGTKLEIK
notes: Clone-2 VH and VL joined to human IgG1 constant region (pFUSEss-CHIg-hG1e1; Fc with mutations at Q250T, E356D, M358L, L428M) and human κ constant region (pFUSE2ss-CLIg-hk); expressed in ExpiCHO cells
B2: the binding result with KPEIEDVGSD, with DKEVSDDEAE, with VGSDEEEEKK, in the experiment with EDVGSDEEEE, with EDKEEEKEKE and with EIEDVGSDEE was “no binding” throughout. Also, in [2], the Kd came out at 0.094 nM. For the same molecule, in experiment [3], the koff was 6.7e-05 s⁻¹. The kon in [3] is 711000 M⁻¹ s⁻¹.

B3: HH01 anti-HSP90α antibody (Clone-2-hA) (antibody, V domains shown)
VH: EVQLVESGGGLVQPGGSLRLSCAASGFTFKTYAMNWVRQAPGQGLEWVARIRSKSRNYATYYADSVKDRFTISRDDSKNQFYLQMNNLRTEDTAVYYCVVGGSGFDYWGQGTTLTVSS
VL: DVVMTQTPLSLPVSLGDQASISCRSSQSIVHSNGNTYLEWYLQKPGQSPQLLIYKVSNRFSGVPDRFSGSGSGTDFTLTISSVEAEDLGVYYCFQGSHVPWTFGGGTKLEIK
notes: expressed in ExpiCHO cells; also called HH01 antibody
As to B3, the Kd in experiment [2] was determined as 0.187 nM. Also, the binding result with EVSDDEAEEK, with KEKEEKESED and with SDEEEEKKDG was “no binding” each time. In experiment [3], the koff came to 0.000137 s⁻¹. In experiment [3], the kon worked out at 729000 M⁻¹ s⁻¹.

B4: Clone-2 anti-HSP90α antibody (mouse monoclonal) (antibody, V domains shown)
VH: EVQVVESGGGLVQPKGSLKLSCAASGFTFKTYAMNWVRQAPGKGLEWVARIRSKSRNYATYYADSVKDRFTISRDDSQFMFYLQMNNLKTEDTAMYYCVVGGSGFDYWGQGTTLTVSS
VL: DVLMTQTPLSLPVSLGDQASISCRSSQSIVHSNGNTYLEWYLQKPGQSPKLLIYKVSNRFSGVPDRFSGSGSGTDFTLSISRVEAGDLGVYYCFQGSHVPWTFGGGTKLEIK
notes: Mouse hybridoma antibody, IgG2b isotype with κ light chains; First tested as culture supernatant, then purified; also called Clone-2 antibody; parental Clone-2
For B4, in the experiment with a.a. 630~732, the binding result was “no binding”.

Source of the values: patent publication US20250333486A1 (NATIONAL HEALTH RESEARCH INSTITUTES, published 2025).
